Measurements from US7074560B2, “Purification of tissue plasminogen activator (tPA)” (Dyax Corp., priority 1996, dated 2006).
Positions of bridges follow the written chain, without caps; N, C: chain ends. No end group written: not given here.

Target: tPA (Homo sapiens, UniProt P00750)
Test: 15-amino acid segment bound to a chromatographic support: tPA binding
Conditions: initial studies
Source text: As noted above, almost all of the variegation in amino acid positions used in building the CMTI library occurred between two cyteines at positions 3 and 10 of CMTI-I (see Table 3). In the parental CMTI protein, these cysteines form disulfide bonds with other cysteine residues elsewhere in the protein (see SEQ ID NO: 1), however with the successful isolation of affinity ligands from the CMTI library, a secondary library was conceptualized which was based on variegating a truncated 15-amino acid segment of the isolate #109 (see amino acids 1–15 of SEQ ID NO: 12). If the C3 and C10 cysteines of these members formed a disulfide bond, then a constrained loop having tPA binding properties might be obtained.

Sequence of tPA (P00750 36-562): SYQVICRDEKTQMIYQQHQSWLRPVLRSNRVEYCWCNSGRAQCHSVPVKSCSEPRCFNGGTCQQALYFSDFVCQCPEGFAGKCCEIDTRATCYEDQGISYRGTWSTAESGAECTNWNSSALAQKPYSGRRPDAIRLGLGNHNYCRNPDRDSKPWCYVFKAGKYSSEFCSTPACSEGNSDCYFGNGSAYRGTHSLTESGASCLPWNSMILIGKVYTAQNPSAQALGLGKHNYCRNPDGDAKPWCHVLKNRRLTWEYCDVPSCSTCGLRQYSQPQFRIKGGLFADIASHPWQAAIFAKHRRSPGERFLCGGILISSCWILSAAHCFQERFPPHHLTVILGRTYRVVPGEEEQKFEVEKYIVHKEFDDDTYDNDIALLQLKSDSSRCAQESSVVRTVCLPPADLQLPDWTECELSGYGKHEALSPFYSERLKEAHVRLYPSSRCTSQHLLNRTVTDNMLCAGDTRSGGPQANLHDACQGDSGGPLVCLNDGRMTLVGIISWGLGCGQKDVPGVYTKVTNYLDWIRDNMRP

Substance: 15-amino acid segment derived from affinity ligand isolate #109: truncated 15-amino acid segment of isolate #109 (amino acids 1–15 of SEQ ID NO: 12), C3–C10 disulfide loop (RLCPKTDLGCMKDSD; disulfide 3-10)
- binding of the immobilized C3–C10 loop to tPA: bound to tPA
